Experimental data: the RNAGym collection of RNA variant scans (doi:10.1073/pnas.2313332121)

B1: TPR t1 (parent)
chain: GACCAAUCUGCCCUCAGAGCUCGAGAACAUCUUCGGAUGCAGAGGAGGCAGGCUUCGGUGGCGCGAUAGCGCCAACGUCCUCAACCUCCAAUGCAUCCCACCACAUGAUGAUGCCUGAAGAGCCUUGGUUUUUUG

Variants of: B1
Experiment: polymerase ribozyme fitness, log enrichment relative to wild type (log ratio); higher = more active; in vitro selection for triplet polymerase activity
How it was run: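 The heterodimeric triplet polymerase ribozyme's subunits were each mutagenized into PCR-built libraries and transcribed. Every library was selected once, in triplicate, by annealing with a biotinylated primer, the partner subunit and triplets, incubating frozen at −7 °C, gel-excising extended constructs, capturing on streptavidin beads and running RT-PCR. Input and output libraries were Illumina-sequenced, with genotypes kept only at ≥10 input reads and ≥1 read per output. Fitness, from inverse-variance-weighted replicate averages, is the base-2 logarithm of genotype enrichment over wild-type enrichment.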

Row | Variant | polymerase ribozyme fitness (log ratio)
1 | GACCAAUCUGCCCUCAGAGCUCGAGAACAUCUUCGGAUGCAGAGGAGGCAGGGUUCGGUGGUGCGAUAGCGCCAACGUCCUCAACCUCCAAUGCAUCCCACCACAUGAUGAUGCCUGAUGAGCCUUGGUUUUUUG [C53G C62U A119U] | -0.561
2 | GACCAAUCUUCCCUCAGAGCUCGAGAACAUCUUCGGAUGCAGAGGAGGCAGGCUUCGGUCGCGCGAUAGCGCCAACGUUCUCAACCUCCAAUGCAUCCCACCACAUGAUGAUGCCUGAACAGCCUUGGUUUUUUG [G10U G60C C79U G120C] | 0.981
3 | GACCAAUCUGCCCUCACAGCUCGAGAACAUCUUCGGAUGCAGAGGAGGCAGGCUUCGGUGGCGCGAUAGCGUCAACGUCCUCAACCUCCAAUGCAUCCCACCACAUGAUGAUGCCUGAAGAGCCUUGGUUUUUUG [G17C C72U] | -4.11
4 | GACCAAUCUGCCCUCAGAGCUCGAGAACAUCUUAGGAUGAAGAGGAGGGAGGCUUCGGUGGCGCGAUAGCGCCAACAUCCUCAACCUCCAAUGCAUCCCACCACAUGAUGAAGCGUGAAGAGCCUUGGUUUUUUG [C34A C40A C49G G77A U112A C115G] | -7.22
5 | GACCAAUCUGCCCUCAGAGCUCGAGAACAUCUUCGGAUGCAGAGGAGGCAGGCUUCGGUGGCGCGAUAGCGCCAACGUCCUCAAACUCCAAUGCAACCCACCACAUGAUGAUGCCUGAAGAGCCUUGGUUUUUUG [C85A U96A] | -2.43
6 | GACCAAUCUGCCCUCAGAGCUCGAGAACAUCUUCGGAUGCAGAUGAGUCAGGCUUCCGUGGCGCGAUAGCGCCAACGUCCUCAACCUCCAAUGCAUCCCACCAAAUGAUGAUGCCUGAAGAGCCUUGGUUUUUUG [G44U G48U G57C C104A] | -3.32
7 | GACCAAUCUGCCCUCAGGGCUCGAGAACAUCUUCGGAUGCAGAGGAGGCAGGCUUCGGUGUCGCGAUAGCGCCAACGUCCUCAACCUCCAAUGGAUCCCACCACAUGAUGAUUCCUGAAGAGCCUUGGUUUUUUG [A18G G61U C94G G113U] | -3.32
8 | GACCAAUCUGCGCUCAGAGCUCGAGAACAUCUUCGGAUGCAGAGGAGGCAGGCUUCGGUAGCGCGAUAGCGCCAACGUCCUCAACCUCCAAUGCAUCCCACCACAUGAUGAUGCGUGAAGAGCCUUGGUUUUUUG [C12G G60A C115G] | -4.95
9 | GACCAAUCUGCCCUCAGAGCUCGAGGACAUCUUCGGAUGCAGAGGAGGUAGGCUUCGGUGGCACGAUAGCGCCAACGUCCUCACCCUCCAAUGCAUCCCACCACAUGAUGAUGCCUGAAGAGCCUUGGUUUUUUG [A26G C49U G63A A84C] | -4.24
10 | GACCAAUCUGCCCUCAGAGCUCGAGAACAUCUUCGGAUGCAGAGUAGGCAGGCUUCGGUGGCGCGAUAGCGCCAACUUCCUCAACCUCCAAUGCAUCCCACCACAUGAUGAUGCCUGAAGAGCCUUGGUUUCUUG [G45U G77U U132C] | -1.59
11 | GACCAAUCUGCCCUCAGAGCUAGAGAACAUCUUCGGAUGCAGAGGAGGCAGGCUUCGGUCGCGCGAUAGCGCCAACGUCCUCAACCUCCGAUGCAUCCCACCACAUGAUGAUGCCUGAAGAGUCUUGGUUUUUUG [C22A G60C A90G C123U] | -5.34
12 | GACCAAUCUGCCCUGAGAGCUCGAGAACAUCUUCGGAUGCAGAGGAGGCAGGCUUCGGUGGCGCGAUAGCGUCAACGUCCUCAACCUCCAAUGCAUCCCUCCACAUGAUGAUGCCUGAAGAGCCUUGGUUUUUUG [C15G C72U A100U] | -3.69
13 | GACCAAUCUGCCCUCAGAGCUCGAGAACAUCUUCGGAUGCAGAGGAAGCAGGCUUCGGUGGCGCGAUAGCGCCAACGGCCACAACUUCCAAUGCAUCCCACCACAUGAUGAUGCCUGAAGAGCCUUGGUUUUGUG [G47A U78G U81A C86U U133G] | -1.35
14 | GACCAAUCUGCCCUCAGAGCUCGAGAACAUCUUCGGAUGCAGAGGAGGCAGGCUUCGGUGGCGCGAUAGCGCCAACGUCCUCAACCUCCAAUGCGUUCCACCACUUGAUGAUGCCUGAAGAUCCUUGGUUUUUUG [A95G C97U A105U G122U] | -4.71
15 | GACCAAUCUGCCCUCAGAGCUCGAGAACAUCUUCGGAUGCAGAGGAGGCAGGCUUCGGUGGCGCGAUAGUGCCAACGUCCUAAAUCUCCAAUGCAUCCCACCACAUGAUGAUGCCUGAAGAGCCUUGGUUUUUUG [C70U C82A C85U] | -1.4
16 | GACCAAUGUGCCCUCAGAGCUCGAGAACAUCUUCGGAUGCAGAGGAGGCAGGCUUCGGUGGCGCGAUAGCGCCAACGUCCUCAACCUCCAAUGCAUCCCUCCACAAGAUGAUGCCAGAAGAGCCUUGGUUUUUUG [C8G A100U U106A U116A] | -0.749
17 | GACCAAUCUGCCCUCAGAGCUCGAGAACAUCUUCGGAUGCAGAGGAGGCAGGCUUCGGUGGCGCGAUAGAGCCAACGUCCUCAACCUCCAAUGCAUCCCACCAUAUGAUGAUGCCUGAAGAGCCUUGGUUUUUUG [C70A C104U] | -1.79
18 | GACCCAUCUGCCCUCAGAGCUCGAGAACAUCUUCGGAUGCAGAGGAGGCAGGCUUAGGUGGCGCGAUAGCGCCAACGUCCUCAACCUCCAAUGCAUCCCACCACAUGAUGAUGCCUGAAGAGCCUUGGUUUUUUG [A5C C56A] | -0.668
19 | GACCAAUCUGCCCUCAGAGCUCGAGAACAUCUUCGGAUGCAGGGGAGGCAGGCUUCGGUGGCGCGAUAGCGCCAACGUCCUCAACCUCCAAUGCAUCCCACCACAUGAUGAUUCCUGAAGAGCCUUGGUUUUUUG [A43G G113U] | -2.72
20 | GACCAAUGUGCCCUCAGAGCUCGAGAACAUCUUCGGAUGCAGAGGAGGCAGGCUUCGGUGGCGCGAUAGCGCCAACGCCCUCAACCUCCAAUGCAUCCCACCACCUGAUGAUGCCUGAAGAGCCUUGGUUUUUUG [C8G U78C A105C] | -2.32
21 | GACCAAUCUGCGCUCAGAGCUCGAGAACAUCUUCGGAUGCAGAGGCGGCAGGCUUCGGUUGCGCGAUAGCGCCAACGUCCUCAACCUCCAAUGCAUCCCACCACAUGACGAUGCCUGAAGAGCCUUGGUUUUUUG [C12G A46C G60U U109C] | -6.49
